Paper PMC9132891, “Antigenic structure of the human coronavirus OC43 spike reveals exposed and occluded neutralizing epitopes” (Nature Communications, 2022)

How the values were obtained:
Assay in all cases: ELISA; S1 antigens coated; H2L2 mAbs at one concentration, 0.4 μg/ml; OD450nm
Details in all cases: both partners purified
[1] = target: T1, S1 of bovine coronavirus (BCoV), strain Mebus (Bovine coronavirus (strain Mebus) …, UniProt P15777)
T1 construct: also called BCoV S1; source: HEK-293T, purified (Protein A sepharose)

[2] = target: T2, S1 of OC43 isolate NL/2019 (Human coronavirus OC43, NL/2019, strain)
T2 construct: source: HEK-293T, transient, purified from culture supernatant (Protein A sepharose)
T2 chain: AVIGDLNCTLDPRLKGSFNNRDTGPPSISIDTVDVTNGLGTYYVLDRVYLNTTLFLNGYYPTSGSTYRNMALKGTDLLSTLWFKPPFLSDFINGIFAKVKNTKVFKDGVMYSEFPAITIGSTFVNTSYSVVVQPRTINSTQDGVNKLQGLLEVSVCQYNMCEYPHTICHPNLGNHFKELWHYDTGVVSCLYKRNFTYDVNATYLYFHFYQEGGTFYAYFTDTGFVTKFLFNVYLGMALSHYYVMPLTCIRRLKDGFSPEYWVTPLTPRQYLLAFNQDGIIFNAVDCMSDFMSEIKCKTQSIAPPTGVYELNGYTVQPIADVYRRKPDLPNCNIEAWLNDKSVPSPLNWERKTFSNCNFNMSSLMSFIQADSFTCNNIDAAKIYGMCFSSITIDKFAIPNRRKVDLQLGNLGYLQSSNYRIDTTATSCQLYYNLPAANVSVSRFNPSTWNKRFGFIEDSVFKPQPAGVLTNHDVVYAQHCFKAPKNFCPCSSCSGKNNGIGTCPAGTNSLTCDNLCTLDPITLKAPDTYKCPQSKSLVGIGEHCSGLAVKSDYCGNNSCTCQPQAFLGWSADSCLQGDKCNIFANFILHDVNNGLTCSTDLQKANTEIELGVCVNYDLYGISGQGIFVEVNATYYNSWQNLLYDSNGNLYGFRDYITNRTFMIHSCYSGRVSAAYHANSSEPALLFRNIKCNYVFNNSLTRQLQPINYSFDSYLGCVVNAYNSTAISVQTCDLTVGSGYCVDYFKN

[3] = target: T3, S1 of OC43 isolate USA/1990(B) (Human coronavirus OC43, USA/1990(B) …, strain)
T3 construct: source: HEK-293T, transient, purified from culture supernatant (Protein A sepharose)
T3 chain: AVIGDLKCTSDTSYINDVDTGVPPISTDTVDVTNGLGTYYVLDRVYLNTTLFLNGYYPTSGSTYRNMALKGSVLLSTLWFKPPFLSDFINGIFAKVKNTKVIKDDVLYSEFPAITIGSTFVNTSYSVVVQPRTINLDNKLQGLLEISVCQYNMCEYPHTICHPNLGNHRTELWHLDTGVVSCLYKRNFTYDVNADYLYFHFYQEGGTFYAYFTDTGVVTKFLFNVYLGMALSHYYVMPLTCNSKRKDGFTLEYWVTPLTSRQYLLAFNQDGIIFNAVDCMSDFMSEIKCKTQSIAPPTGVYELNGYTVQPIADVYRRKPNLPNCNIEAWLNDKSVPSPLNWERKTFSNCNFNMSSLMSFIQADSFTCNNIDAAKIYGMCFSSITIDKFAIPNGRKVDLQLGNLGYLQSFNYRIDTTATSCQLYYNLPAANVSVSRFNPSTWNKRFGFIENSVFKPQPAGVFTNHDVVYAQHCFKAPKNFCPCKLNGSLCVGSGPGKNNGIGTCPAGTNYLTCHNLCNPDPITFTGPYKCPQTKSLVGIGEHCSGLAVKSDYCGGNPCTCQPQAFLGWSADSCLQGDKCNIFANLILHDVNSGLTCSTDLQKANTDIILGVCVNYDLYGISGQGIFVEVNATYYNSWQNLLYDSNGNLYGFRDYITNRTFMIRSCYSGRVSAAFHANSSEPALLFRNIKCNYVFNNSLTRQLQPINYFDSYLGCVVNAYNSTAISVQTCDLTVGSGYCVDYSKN

[4] = target: T4, S1 of OC43 isolate USA/1990(A-II) (Human coronavirus OC43, USA/1990(A-II) …, strain)
T4 construct: source: HEK-293T, transient, purified from culture supernatant (Protein A sepharose)
T4 chain: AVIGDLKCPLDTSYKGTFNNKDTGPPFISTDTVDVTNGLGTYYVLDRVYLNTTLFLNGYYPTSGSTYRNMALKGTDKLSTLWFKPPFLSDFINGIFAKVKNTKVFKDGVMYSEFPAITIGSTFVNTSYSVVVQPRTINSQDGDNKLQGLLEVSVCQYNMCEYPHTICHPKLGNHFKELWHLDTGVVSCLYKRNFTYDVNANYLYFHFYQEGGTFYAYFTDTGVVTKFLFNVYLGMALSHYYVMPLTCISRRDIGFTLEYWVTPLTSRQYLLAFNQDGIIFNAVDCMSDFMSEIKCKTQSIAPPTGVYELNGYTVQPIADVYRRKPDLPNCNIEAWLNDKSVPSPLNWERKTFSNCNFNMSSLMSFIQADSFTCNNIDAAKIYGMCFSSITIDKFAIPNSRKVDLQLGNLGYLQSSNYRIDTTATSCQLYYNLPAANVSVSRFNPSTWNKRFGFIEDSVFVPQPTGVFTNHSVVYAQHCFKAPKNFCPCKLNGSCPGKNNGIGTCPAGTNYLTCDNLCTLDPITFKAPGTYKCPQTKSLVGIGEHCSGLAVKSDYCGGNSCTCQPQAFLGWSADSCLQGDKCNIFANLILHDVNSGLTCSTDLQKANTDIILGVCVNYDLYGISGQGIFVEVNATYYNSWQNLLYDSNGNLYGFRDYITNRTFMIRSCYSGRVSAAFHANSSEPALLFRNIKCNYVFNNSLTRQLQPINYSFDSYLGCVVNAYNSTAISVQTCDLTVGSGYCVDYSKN

[5] = target: T5, S1 of equine coronavirus (ECoV), strain NC99 (Equine coronavirus, strain NC99, UniProt A8R4D0, strain)
T5 construct: also called ECoV S1; source: HEK-293T, purified (Protein A sepharose)

[6] = target: T6, S1 of OC43 isolate NL/2004 (Human coronavirus OC43, NL/2004, strain)
T6 construct: source: HEK-293T, transient, purified from culture supernatant (Protein A sepharose)
T6 chain: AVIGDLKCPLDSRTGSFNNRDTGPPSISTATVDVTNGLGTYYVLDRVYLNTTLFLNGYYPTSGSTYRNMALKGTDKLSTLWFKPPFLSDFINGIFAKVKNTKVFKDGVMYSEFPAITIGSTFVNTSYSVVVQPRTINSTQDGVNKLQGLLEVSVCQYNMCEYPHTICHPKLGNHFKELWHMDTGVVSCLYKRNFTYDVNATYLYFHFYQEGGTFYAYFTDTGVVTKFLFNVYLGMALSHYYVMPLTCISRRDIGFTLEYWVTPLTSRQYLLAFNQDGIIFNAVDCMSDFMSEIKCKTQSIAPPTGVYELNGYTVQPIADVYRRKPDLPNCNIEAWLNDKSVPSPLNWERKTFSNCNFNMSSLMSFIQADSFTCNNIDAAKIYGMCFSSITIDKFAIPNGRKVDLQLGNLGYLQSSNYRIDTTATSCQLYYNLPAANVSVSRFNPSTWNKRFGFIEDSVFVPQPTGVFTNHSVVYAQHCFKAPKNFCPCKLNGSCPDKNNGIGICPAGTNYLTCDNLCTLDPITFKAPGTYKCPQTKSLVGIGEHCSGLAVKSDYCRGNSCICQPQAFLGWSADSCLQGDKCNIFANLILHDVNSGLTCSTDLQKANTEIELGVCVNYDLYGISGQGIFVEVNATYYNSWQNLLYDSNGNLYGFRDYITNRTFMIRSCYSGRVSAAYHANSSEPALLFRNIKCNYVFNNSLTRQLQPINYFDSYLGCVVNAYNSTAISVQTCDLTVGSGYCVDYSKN

[7] = target: T7, S1 of OC43 isolate BE/2004 (Human coronavirus OC43, BE/2004, UniProt Q4VID5, strain)
T7 construct: source: HEK-293T, transient, purified from culture supernatant (Protein A sepharose)

Measured: binding result

T1 sequence (P15777 14-763): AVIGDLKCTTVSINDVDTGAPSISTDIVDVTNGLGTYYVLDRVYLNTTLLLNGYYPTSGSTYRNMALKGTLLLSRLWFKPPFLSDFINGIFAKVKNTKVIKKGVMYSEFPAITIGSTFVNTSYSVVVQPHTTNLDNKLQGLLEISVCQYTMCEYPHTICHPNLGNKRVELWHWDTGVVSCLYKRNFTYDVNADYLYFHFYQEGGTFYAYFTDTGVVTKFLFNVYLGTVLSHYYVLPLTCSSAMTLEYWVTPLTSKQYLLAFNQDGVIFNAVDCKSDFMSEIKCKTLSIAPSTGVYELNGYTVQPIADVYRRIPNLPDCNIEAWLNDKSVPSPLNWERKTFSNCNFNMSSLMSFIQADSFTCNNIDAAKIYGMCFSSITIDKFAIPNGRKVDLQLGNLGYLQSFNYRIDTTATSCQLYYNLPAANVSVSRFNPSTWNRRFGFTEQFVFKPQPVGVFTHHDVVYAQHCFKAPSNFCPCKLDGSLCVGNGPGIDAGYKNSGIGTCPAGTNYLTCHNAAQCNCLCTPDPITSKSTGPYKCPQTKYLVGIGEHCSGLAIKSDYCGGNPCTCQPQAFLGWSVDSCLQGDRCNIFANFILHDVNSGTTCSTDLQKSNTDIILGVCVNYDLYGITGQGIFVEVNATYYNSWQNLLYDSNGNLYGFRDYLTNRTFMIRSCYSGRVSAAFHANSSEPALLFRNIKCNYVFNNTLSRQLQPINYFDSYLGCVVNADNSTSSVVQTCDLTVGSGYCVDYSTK

B1: 65A11 H2L2 monoclonal antibody (antibody, V domains shown)
VH: QVQMVESGGGVVQPGRSLRLSCAASGFSFSSYGMHWVRQAPGKGLEWVAVIWSDVNYKFYADSVKGRFTISRDNSKNTLSLQMNSLRAEDTAVYYCARDSGLRYFDWDYRGYFDLWGRGTLVTVSS
VL: not shown
notes: also called 65A11 (H2L2 format)
binds: [1]

B2: 45B9 H2L2 monoclonal antibody (antibody, V domains shown)
VH: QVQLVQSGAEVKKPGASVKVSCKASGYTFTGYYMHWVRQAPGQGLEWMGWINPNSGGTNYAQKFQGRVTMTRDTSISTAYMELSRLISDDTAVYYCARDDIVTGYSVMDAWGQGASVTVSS
VL: DIQMTQSPSSLSASVGDRVTITCRASQSISNYLNWYQQKPGKAPTLLIYAASSLQSGVPSRFSGSGSGTDFTLTISSLQPEDFATYYCQPSYSSPYTFGQGTKLEIK
notes: also called 45B9 (H2L2 format)
binds: [2] | [3] | [4] | [5] | [6] | [1] | [7]

B3: 56E10 H2L2 monoclonal antibody (antibody, V domains shown)
VH: QVQLQESGPGLVKPSETLSLTCTVSGGSISGYYWSWIRQPPGKGLEWIGYIFYNGNTNYNPSLKSRVTTSLDTSKNQFSLKLISVTGADTAVYYCVRTSLYYFDYWGQGTLVTVSS
VL: DIQMTQSPSSLSASVGDRVTITCQASQDISNFLNWYQQKPGKAPKLLIYDTSSLETGVPSRFSGSGSETDFTFTISSLQPEDIATYYCQQYDNLPLTFGGGTKVEIK
notes: also called 56E10 (H2L2 format)
binds: [2] | [3] | [4] | [6] | [7]
